Earlier results on one substance are cited in paper PMC7553146.

For one data set, the target named is Cys145 (UniProt position 3385, FLNGSCGSVGF).
In another data set the target is His41 (UniProt position 3281, VYCPRHVICTA).

As a reminder, the pKa is the pH at which an ionisable group is half protonated. Regarding “3C-like main protease (3CL Mpro, nsp5) (Severe acute respiratory syndrome coronavirus (SARS-CoV))”, the pKa in the data set with Cys145 is recorded as 8.0 ± 0.3; in the data set with His41, 6.3 ± 0.1.
